Test results from the supplement of paper PMC9112550, “Optimization of the antimicrobial peptide Bac7 by deep mutational scanning” (BMC Biology, 2022).

The sequences below were run on Escherichia coli TOP10 (assay: shrunken log2 fold change of peptide-encoding DNA abundance (4.5 h post-induction vs induction); higher = less antimicrobial activity (less host growth inhibition)). Settings: time post-induction: 4.5 h; library: site-saturation at positions 5, 18, 19, 20.
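Note: peptides expressed intracellularly from a pBAD plasmid library in pooled LB shake-flask culture, induced with 0.3% L-arabinose, DNA abundance read by NGS, three biological replicates, DESeq2 with apeglm shrinkage.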

Q: How did the “shrunken log2 fold change” value turn out when RRIRWRPPRLPRPRPRPGATPRP was run?
A: 1.02

Q: With RRIRCRPPRLPRPRPRPHITPRP as the sequence, how does the “shrunken log2 fold change” value read?
A: -0.704

Q: With RRIRARPPRLPRPRPRPCTWPRP as the sequence, how does the “shrunken log2 fold change” value read?
A: 0.108

Q: RRIRGRPPRLPRPRPRPLNFPRP was tested. Which “shrunken log2 fold change” value did it give?
A: -0.0482

Q: Which “shrunken log2 fold change” value does the source give for RRIRRRPPRLPRPRPRPAQGPRP here?
A: -0.179

Q: RRIRERPPRLPRPRPRPQMIPRP was tested. Which “shrunken log2 fold change” value did it give?
A: 0.132

Q: RRIRGRPPRLPRPRPRPKTKPRP was tested. Which “shrunken log2 fold change” value did it give?
A: 0.0509

Q: With RRIRERPPRLPRPRPRPWLYPRP as the sequence, how does the “shrunken log2 fold change” value read?
A: 0.102

Q: For RRIRWRPPRLPRPRPRPHMFPRP, which “shrunken log2 fold change” value is on record?
A: -0.0668

Q: With RRIRVRPPRLPRPRPRPMWDPRP as the sequence, how does the “shrunken log2 fold change” value read?
A: -0.101

Q: RRIRLRPPRLPRPRPRPSFVPRP was tested. Which “shrunken log2 fold change” value did it give?
A: -0.392

Q: With RRIRCRPPRLPRPRPRPMHQPRP as the sequence, how does the “shrunken log2 fold change” value read?
A: -0.0626

Q: RRIRGRPPRLPRPRPRPRAAPRP was tested. Which “shrunken log2 fold change” value did it give?
A: 1.53

Q: With RRIRHRPPRLPRPRPRPSNHPRP as the sequence, how does the “shrunken log2 fold change” value read?
A: -0.461

Q: RRIRERPPRLPRPRPRPHLQPRP was tested. Which “shrunken log2 fold change” value did it give?
A: -0.206

Q: For RRIRYRPPRLPRPRPRPCIAPRP, which “shrunken log2 fold change” value is on record?
A: -0.148

Q: RRIRMRPPRLPRPRPRPERLPRP was tested. Which “shrunken log2 fold change” value did it give?
A: 0.442

Q: With RRIRGRPPRLPRPRPRPGCGPRP as the sequence, how does the “shrunken log2 fold change” value read?
A: 1.31

Q: How did the “shrunken log2 fold change” value turn out when RRIRNRPPRLPRPRPRPMNFPRP was run?
A: -0.0203

Q: How did the “shrunken log2 fold change” value turn out when RRIRSRPPRLPRPRPRPDWWPRP was run?
A: -0.0873

Q: How did the “shrunken log2 fold change” value turn out when RRIRWRPPRLPRPRPRPRWHPRP was run?
A: 0.271

Q: How did the “shrunken log2 fold change” value turn out when RRIRDRPPRLPRPRPRPSGCPRP was run?
A: 0.0451

Q: RRIRSRPPRLPRPRPRPNMKPRP was tested. Which “shrunken log2 fold change” value did it give?
A: -0.436

Q: For RRIRVRPPRLPRPRPRPFKDPRP, which “shrunken log2 fold change” value is on record?
A: -0.166

Q: For RRIRIRPPRLPRPRPRPGLVPRP, which “shrunken log2 fold change” value is on record?
A: 0.0385

Q: Which “shrunken log2 fold change” value does the source give for RRIRCRPPRLPRPRPRPWPTPRP here?
A: 0.0985

Q: With RRIRLRPPRLPRPRPRPLPIPRP as the sequence, how does the “shrunken log2 fold change” value read?
A: -0.129

Q: Which “shrunken log2 fold change” value does the source give for RRIRHRPPRLPRPRPRPQMNPRP here?
A: -0.312

Q: For RRIRNRPPRLPRPRPRPEFCPRP, which “shrunken log2 fold change” value is on record?
A: 0.0216

Q: For RRIRARPPRLPRPRPRPNQGPRP, which “shrunken log2 fold change” value is on record?
A: 0.392

Q: RRIRVRPPRLPRPRPRPHCNPRP was tested. Which “shrunken log2 fold change” value did it give?
A: -0.408

Q: RRIRIRPPRLPRPRPRPRAYPRP was tested. Which “shrunken log2 fold change” value did it give?
A: -0.315

Q: For RRIRRRPPRLPRPRPRPSCQPRP, which “shrunken log2 fold change” value is on record?
A: -0.0699

Q: For RRIRDRPPRLPRPRPRPRPVPRP, which “shrunken log2 fold change” value is on record?
A: 0.466

Q: Which “shrunken log2 fold change” value does the source give for RRIRSRPPRLPRPRPRPLCRPRP here?
A: -0.0794

Q: RRIRDRPPRLPRPRPRPDYQPRP was tested. Which “shrunken log2 fold change” value did it give?
A: 0.0708

Q: With RRIRGRPPRLPRPRPRPIYTPRP as the sequence, how does the “shrunken log2 fold change” value read?
A: 0.173

Q: For RRIRARPPRLPRPRPRPNRMPRP, which “shrunken log2 fold change” value is on record?
A: 0.0574

Q: Which “shrunken log2 fold change” value does the source give for RRIRQRPPRLPRPRPRPNWSPRP here?
A: 0.148

Q: With RRIRDRPPRLPRPRPRPSTAPRP as the sequence, how does the “shrunken log2 fold change” value read?
A: 0.314

Q: RRIRGRPPRLPRPRPRPWLMPRP was tested. Which “shrunken log2 fold change” value did it give?
A: 0.428

Q: Which “shrunken log2 fold change” value does the source give for RRIRYRPPRLPRPRPRPIVTPRP here?
A: -0.015

Q: With RRIRIRPPRLPRPRPRPGWKPRP as the sequence, how does the “shrunken log2 fold change” value read?
A: -0.0134

Q: With RRIRLRPPRLPRPRPRPPQMPRP as the sequence, how does the “shrunken log2 fold change” value read?
A: 0.304

Q: RRIRHRPPRLPRPRPRPYHDPRP was tested. Which “shrunken log2 fold change” value did it give?
A: -0.135

Q: For RRIRWRPPRLPRPRPRPRDIPRP, which “shrunken log2 fold change” value is on record?
A: -0.244

Q: For RRIRHRPPRLPRPRPRPWEEPRP, which “shrunken log2 fold change” value is on record?
A: -0.0121

Q: RRIRHRPPRLPRPRPRPTKNPRP was tested. Which “shrunken log2 fold change” value did it give?
A: -0.312

Q: RRIRTRPPRLPRPRPRPQKEPRP was tested. Which “shrunken log2 fold change” value did it give?
A: 0.0092

Q: With RRIRVRPPRLPRPRPRPGQWPRP as the sequence, how does the “shrunken log2 fold change” value read?
A: 0.0407

Q: Which “shrunken log2 fold change” value does the source give for RRIRMRPPRLPRPRPRPEMPPRP here?
A: 0.791

Q: With RRIRARPPRLPRPRPRPFQMPRP as the sequence, how does the “shrunken log2 fold change” value read?
A: -0.0651

Q: RRIRLRPPRLPRPRPRPTICPRP was tested. Which “shrunken log2 fold change” value did it give?
A: -0.176

Q: With RRIRVRPPRLPRPRPRPSNEPRP as the sequence, how does the “shrunken log2 fold change” value read?
A: -0.775

Q: Which “shrunken log2 fold change” value does the source give for RRIRFRPPRLPRPRPRPWNNPRP here?
A: -0.0242

Q: RRIRKRPPRLPRPRPRPAAFPRP was tested. Which “shrunken log2 fold change” value did it give?
A: 0.59

Q: Which “shrunken log2 fold change” value does the source give for RRIRCRPPRLPRPRPRPRYWPRP here?
A: -0.0818

Q: For RRIRKRPPRLPRPRPRPMDGPRP, which “shrunken log2 fold change” value is on record?
A: 0.231

Q: With RRIRVRPPRLPRPRPRPNYGPRP as the sequence, how does the “shrunken log2 fold change” value read?
A: -0.387

Q: With RRIRCRPPRLPRPRPRPQYCPRP as the sequence, how does the “shrunken log2 fold change” value read?
A: -0.135

Q: Which “shrunken log2 fold change” value does the source give for RRIRVRPPRLPRPRPRPFVYPRP here?
A: -0.439

Q: RRIRCRPPRLPRPRPRPFYGPRP was tested. Which “shrunken log2 fold change” value did it give?
A: -0.262

Q: RRIRCRPPRLPRPRPRPRREPRP was tested. Which “shrunken log2 fold change” value did it give?
A: 0.746

Q: Which “shrunken log2 fold change” value does the source give for RRIRKRPPRLPRPRPRPMNVPRP here?
A: 0.13

Q: For RRIRKRPPRLPRPRPRPRWAPRP, which “shrunken log2 fold change” value is on record?
A: 0.469

Q: For RRIRGRPPRLPRPRPRPLNKPRP, which “shrunken log2 fold change” value is on record?
A: 0.11

Q: RRIRHRPPRLPRPRPRPSRRPRP was tested. Which “shrunken log2 fold change” value did it give?
A: -0.105

Q: RRIRMRPPRLPRPRPRPSYWPRP was tested. Which “shrunken log2 fold change” value did it give?
A: 0.0657

Q: For RRIRGRPPRLPRPRPRPVECPRP, which “shrunken log2 fold change” value is on record?
A: 0.289

Q: How did the “shrunken log2 fold change” value turn out when RRIRQRPPRLPRPRPRPHLIPRP was run?
A: -0.0982

Q: With RRIRHRPPRLPRPRPRPVKLPRP as the sequence, how does the “shrunken log2 fold change” value read?
A: -0.438

Q: How did the “shrunken log2 fold change” value turn out when RRIRKRPPRLPRPRPRPRAQPRP was run?
A: 0.7

Q: For RRIRMRPPRLPRPRPRPFFYPRP, which “shrunken log2 fold change” value is on record?
A: -0.123

Q: For RRIRARPPRLPRPRPRPLHHPRP, which “shrunken log2 fold change” value is on record?
A: -0.0724

Q: For RRIRSRPPRLPRPRPRPCRAPRP, which “shrunken log2 fold change” value is on record?
A: -0.0808

Q: RRIRHRPPRLPRPRPRPRTLPRP was tested. Which “shrunken log2 fold change” value did it give?
A: -0.137

Q: RRIRKRPPRLPRPRPRPGYSPRP was tested. Which “shrunken log2 fold change” value did it give?
A: -0.447

Q: Which “shrunken log2 fold change” value does the source give for RRIRHRPPRLPRPRPRPNVHPRP here?
A: -0.113

Q: With RRIRSRPPRLPRPRPRPLPLPRP as the sequence, how does the “shrunken log2 fold change” value read?
A: -0.0835

Q: For RRIRGRPPRLPRPRPRPTRLPRP, which “shrunken log2 fold change” value is on record?
A: 0.939

Q: With RRIRHRPPRLPRPRPRPDQDPRP as the sequence, how does the “shrunken log2 fold change” value read?
A: -0.0366

Q: Which “shrunken log2 fold change” value does the source give for RRIRNRPPRLPRPRPRPCIHPRP here?
A: -0.355

Q: RRIRSRPPRLPRPRPRPMSGPRP was tested. Which “shrunken log2 fold change” value did it give?
A: 0.131

Q: How did the “shrunken log2 fold change” value turn out when RRIRFRPPRLPRPRPRPYYKPRP was run?
A: -0.207

Q: How did the “shrunken log2 fold change” value turn out when RRIRSRPPRLPRPRPRPDGMPRP was run?
A: -0.113

Q: Which “shrunken log2 fold change” value does the source give for RRIRQRPPRLPRPRPRPIVLPRP here?
A: -0.132

Q: RRIRCRPPRLPRPRPRPMYTPRP was tested. Which “shrunken log2 fold change” value did it give?
A: -0.551

Q: How did the “shrunken log2 fold change” value turn out when RRIRQRPPRLPRPRPRPKCGPRP was run?
A: 0.354

Q: With RRIRKRPPRLPRPRPRPNQNPRP as the sequence, how does the “shrunken log2 fold change” value read?
A: 1.18

Q: How did the “shrunken log2 fold change” value turn out when RRIRLRPPRLPRPRPRPARWPRP was run?
A: 0.284

Q: How did the “shrunken log2 fold change” value turn out when RRIRYRPPRLPRPRPRPHAAPRP was run?
A: -0.211

Q: With RRIRCRPPRLPRPRPRPIASPRP as the sequence, how does the “shrunken log2 fold change” value read?
A: -0.0344

Q: With RRIRVRPPRLPRPRPRPSSIPRP as the sequence, how does the “shrunken log2 fold change” value read?
A: -0.128

Q: With RRIRERPPRLPRPRPRPCDRPRP as the sequence, how does the “shrunken log2 fold change” value read?
A: -0.187

Q: For RRIRRRPPRLPRPRPRPWYNPRP, which “shrunken log2 fold change” value is on record?
A: -0.468

Q: With RRIRLRPPRLPRPRPRPVFNPRP as the sequence, how does the “shrunken log2 fold change” value read?
A: -0.448

Q: With RRIRSRPPRLPRPRPRPEYGPRP as the sequence, how does the “shrunken log2 fold change” value read?
A: -0.346

Q: For RRIRERPPRLPRPRPRPMKCPRP, which “shrunken log2 fold change” value is on record?
A: 0.00911

Q: Which “shrunken log2 fold change” value does the source give for RRIRYRPPRLPRPRPRPTWMPRP here?
A: 0.0576

Q: Which “shrunken log2 fold change” value does the source give for RRIRKRPPRLPRPRPRPTFDPRP here?
A: 0.227

Q: RRIRERPPRLPRPRPRPKVAPRP was tested. Which “shrunken log2 fold change” value did it give?
A: 0.0804

Q: For RRIRERPPRLPRPRPRPWFTPRP, which “shrunken log2 fold change” value is on record?
A: -0.187

Q: Which “shrunken log2 fold change” value does the source give for RRIRHRPPRLPRPRPRPGRFPRP here?
A: 0.314

Q: For RRIRIRPPRLPRPRPRPFEKPRP, which “shrunken log2 fold change” value is on record?
A: -0.103

Q: With RRIRQRPPRLPRPRPRPWYIPRP as the sequence, how does the “shrunken log2 fold change” value read?
A: -0.0906

Q: With RRIRQRPPRLPRPRPRPLLRPRP as the sequence, how does the “shrunken log2 fold change” value read?
A: -0.0709

Q: For RRIRSRPPRLPRPRPRPAWFPRP, which “shrunken log2 fold change” value is on record?
A: 0.171

Q: With RRIRCRPPRLPRPRPRPRMGPRP as the sequence, how does the “shrunken log2 fold change” value read?
A: 0.0392

Q: With RRIRVRPPRLPRPRPRPFFTPRP as the sequence, how does the “shrunken log2 fold change” value read?
A: 0.00087
